# Laboratory results taken from paper PMC9104804, “Fine-Tuning Modulation of Oxidation-Mediated Posttranslational Control of Bradyrhizobium diazoefficiens FixK2 Transcription Factor”.
# Where a chain is given by its changes, count along the chain named.
# B1: fixN_3 FixK2 box duplex (SPR) (dsDNA)
# DNA 1: CCACCTATCTTGATTTCAATCAATTCCCCG
# DNA 2: CGGGGAATTGATTGAAATCAAGATAGGTGG
# modifications: 5'-biotin on reverse strand (S47)
# Experiments:
# [1] = target: FixK2 protein (native, wild type) of Bradyrhizobium diazoefficiens (Bradyrhizobium diazoefficiens) (UniProt Q89RK6); test: SEC; analytical SEC, Superdex 200 10/300 GL, room temperature, 40 mM Tris-HCl pH 7.0, 150 mM KCl, 0.1 mM EDTA; 100 µL samples loaded at 2.5-30 µM (native) or 2.5-40 µM (C183S, C183D); concentrations refer to the dimeric form; monomer-dimer equilibrium
# [2] = target: T1, C183S FixK2 C183S (Bradyrhizobium diazoefficiens 110spc4) (UniProt O69245); test: EMSA; conditions: EMSA: 40 mM Tris-HCl pH 8, 10 mM MgCl2, 0.1 mM EDTA, 0.1 mM DTT, 150 mM KCl, 0.4 mM K3PO4, room temperature, 30 min; SPR: 40 mM Tris-HCl pH 7.0, 150 mM KCl …
# T1 sequence: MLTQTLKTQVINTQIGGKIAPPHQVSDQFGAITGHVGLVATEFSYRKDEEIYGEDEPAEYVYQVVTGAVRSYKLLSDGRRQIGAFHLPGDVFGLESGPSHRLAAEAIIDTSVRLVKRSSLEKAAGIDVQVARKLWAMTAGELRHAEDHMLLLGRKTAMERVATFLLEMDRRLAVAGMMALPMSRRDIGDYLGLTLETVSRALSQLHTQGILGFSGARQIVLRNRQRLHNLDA
# [3] = target: T2, C183D FixK2 C183D (Bradyrhizobium diazoefficiens 110spc4) (UniProt O69245); test: EMSA; conditions: EMSA: 40 mM Tris-HCl pH 8, 10 mM MgCl2, 0.1 mM EDTA, 0.1 mM DTT, 150 mM KCl, 0.4 mM K3PO4, room temperature, 30 min; SPR: 40 mM Tris-HCl pH 7.0, 150 mM KCl …; scale: fold higher protein concentration than C183S for similar shift
# T2 sequence: T1 sequence with S183D
# [4] = target: C183D FixK2 protein variant of Bradyrhizobium diazoefficiens (Bradyrhizobium diazoefficiens) (UniProt Q89RK6); test: SEC; analytical SEC, Superdex 200 10/300 GL, room temperature, 40 mM Tris-HCl pH 7.0, 150 mM KCl, 0.1 mM EDTA; 100 µL samples loaded at 2.5-30 µM (native) or 2.5-40 µM (C183S, C183D); concentrations refer to the dimeric form; monomer-dimer equilibrium
# [5] = target: C183S FixK2 protein variant of Bradyrhizobium diazoefficiens (Bradyrhizobium diazoefficiens) (UniProt Q89RK6); test: as above
# C183S FixK2 = target: T3, C183S FixK2 (Bradyrhizobium diazoefficiens 110spc4, UniProt O69245 1-232, C183S); test: SPR; sensorgram at 250 nM; nanomolar affinity only cited from earlier study; EMSA: 40 mM Tris-HCl pH 8, 10 mM MgCl2, 0.1 mM EDTA, 0.1 mM DTT, 150 mM KCl, 0.4 mM K3PO4, room temperature, 30 min; SPR: 40 mM Tris-HCl pH 7.0, 150 mM KCl, 0.1 mM EDTA, 0.005% Tween 20, 25 °C; conditions: protein: recombinant; tags: untagged after cleavage of C-terminal Mxe GyrA intein-CBD (IMPACT, pTXB1); chain copies: 2; label: biotin; blunt
# T3 sequence: T1 sequence
molecule,measurement,setting,value
"FixK2 protein (native, wild type) of Bradyrhizobium diazoefficiens (from UniProt Q89RK6 4-235) (natural protein)",stoichiometry N,[1],2
AAGAACACAGCGCCAGAAACCACATTCACCCTCGCGGGGAATTGATTGAAATCAAGATAGGTGGATTTCTGTTAATGTGAGGCTTTCGCG (double strand) [fixNOQP promoter 90-bp PCR fragment],binding,[2],binds
same,binding signal,[3],32
C183D FixK2 protein variant of Bradyrhizobium diazoefficiens (from UniProt Q89RK6 4-235) (natural protein),stoichiometry N,[4],2
C183S FixK2 protein variant of Bradyrhizobium diazoefficiens (from UniProt Q89RK6 4-235) (natural protein),stoichiometry N,[5],2
fixNOQP promoter 90-bp PCR fragment,binding signal,[3],32
B1,binding result,C183S FixK2,binds
